From patent US20240361334A1
pEC50, pKd: −log10 of the molar value.

Legend:
[1] = molecular target: human C1q protein (Sigma-Aldrich #C1740) (human) (UniProt P02745); assay: HTRF sandwich, biotin-anti-human Fab 1/SA-d2, Eu-anti-C1q, buffer 1
[2] = molecular target: Human myeloma IgG1 purified from human plasma (Sigma-Aldrich #I5154); assay: HTRF saturation binding, anti-Fab-d2 on Eu cryptate-IgG
[3] = molecular target: Human myeloma IgG4 purified from human plasma (Sigma-Aldrich #I4764); assay: as above
[4] = molecular target: Human myeloma IgG1 purified from human plasma (Sigma-Aldrich #I5154); assay: HTRF saturation binding, biotin-anti-Fab/SA-d2 on Eu cryptate-IgG
[5] = molecular target: Human myeloma IgG4 purified from human plasma (Sigma-Aldrich #I4764); assay: as above
[6] = molecular target: Human myeloma IgG2 purified from human plasma (Sigma-Aldrich #I5404); assay: as above
[7] = molecular target: human C1q protein (Sigma-Aldrich #C1740) (human) (UniProt P02745); assay: HTRF sandwich, biotin-anti-human Fab 1/SA-d2, Eu-anti-C1q, 135 mM NaCl
[8] = molecular target: human C1q protein (Sigma-Aldrich #C1740) (human) (UniProt P02745); assay: HTRF sandwich, biotin-anti-human Fab 1/SA-d2, Eu-anti-C1q, 155 mM NaCl
[9] = molecular target: human C1q protein (Sigma-Aldrich #C1740) (human) (UniProt P02745); assay: HTRF sandwich, 50 nM biotin-anti-human Fab 1/SA-d2, Eu-anti-C1q, buffer 2
[10] = molecular target: human C1q protein (Sigma-Aldrich #C1740) (human) (UniProt P02745); assay: HTRF sandwich, biotin-anti-human Fab 1/SA-d2, Tb cryptate-C1q
[11] = molecular target: human C1q protein (Sigma-Aldrich #C1740) (human) (UniProt P02745); assay: HTRF sandwich, 40 nM biotin-anti-human Fab 1/SA-d2, Eu-anti-C1q, buffer 2
[12] = molecular target: human C1q protein (Sigma-Aldrich #C1740) (human) (UniProt P02745); assay: HTRF sandwich, 30 nM biotin-anti-human Fab 1/SA-d2, Eu-anti-C1q, buffer 2
[13] = molecular target: human C1q protein (Sigma-Aldrich #C1740) (human) (UniProt P02745); assay: HTRF sandwich, biotin-anti-human Fab 1/SA-d2, Eu-anti-C1q, buffer 2, with 150 nM human TNF-α
[14] = molecular target: human C1q protein (Sigma-Aldrich #C1740) (human) (UniProt P02745); assay: AlphaLISA sandwich, biotin-anti-human Fab 1/streptavidin donor beads, anti-C1q acceptor beads
[15] = molecular target: human C1q protein (Sigma-Aldrich #C1740) (human) (UniProt P02745); assay: HTRF sandwich, biotin-anti-human Fab 2/SA-d2, Eu-anti-C1q
[16] = molecular target: human C1q protein (Sigma-Aldrich #C1740) (human) (UniProt P02745); assay: HTRF sandwich, anti-human Fab 2-d2 without streptavidin, Eu-anti-C1q
[17] = molecular target: human C1q protein (Sigma-Aldrich #C1740) (human) (UniProt P02745); assay: HTRF sandwich, biotin-Protein L/SA-d2, Eu-anti-C1q
[18] = molecular target: human C1q protein (Sigma-Aldrich #C1740) (human) (UniProt P02745); assay: HTRF sandwich, biotin-anti-human Fab 1/SA-d2, Eu-anti-C1q, buffer 2

Sequence of Adalimumab (+150 nM TNF-α) (P01375 77-233): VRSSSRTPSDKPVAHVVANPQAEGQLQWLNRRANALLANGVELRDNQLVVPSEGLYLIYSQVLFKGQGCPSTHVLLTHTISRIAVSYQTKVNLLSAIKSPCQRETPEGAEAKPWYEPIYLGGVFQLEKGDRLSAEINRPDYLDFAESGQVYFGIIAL

Non-glycosylated Rituximab (InvivoGen #hcd20-mab12) (antibody)
pEC50 [1]: 7.60

Anti-human Fab 2: anti-human IgG Fab, mouse IgG2b, monoclonal antibody, clone 2A11 (GeneTex #GTX27497)
pKd [2]: 9.70 | pKd [3]: 9.35 | pKd [4]: 9.59 | pKd [5]: 9.40 | pKd [6]: 9.33

Non-fucosylated Rituximab (InvivoGen #hcd20-mab13) (from UniProt P01857 1-330) (antibody)
pEC50 [1]: 7.79

Obinutuzumab (antibody)
pEC50 [7]: 7.73 | pEC50 [8]: 7.71 | S/B [8]: 1.6 | pEC50 [1]: 7.73

Non-glycosylated Cetuximab (InvivoGen #hegfr-mab12) (antibody)
pEC50 [1]: 7.99 | S/B [1]: 1.4

Anti-human Fab 1: anti-human IgG Fab, mouse IgG2b, monoclonal antibody, clone 4A11 (ThermoFisher Scientific #SA1-19255)
pKd [2]: 9.80 | pKd [3]: 9.36 | pKd [4]: 9.70 | pKd [5]: 9.48 | pKd [6]: 9.43

Cetuximab (antibody)
pEC50 [1]: 7.77

Human IgG2 Isotype Control Recombinant Antibody (BioLegend #403602)
pEC50 [9]: 7.51 | pEC50 [10]: 7.13 | pEC50 [11]: 7.59 | pEC50 [1]: 7.47 | pEC50 [12]: 7.72

Adalimumab (+150 nM TNF-α) (from UniProt P01375 77-233)
pEC50 [13]: 8.34 | S/B [13]: 6.9

Human IgG1 Isotype Control Recombinant Antibody (BioLegend #403502)
pEC50 [10]: 7.86 | pEC50 [14]: 7.63 | S/B [14]: 752 | pEC50 [1]: 7.76

Rituximab IgG2 isotype (InvivoGen #hcd20-mab2) (from UniProt P01859 1-326) (antibody)
pEC50 [7]: 7.42 | pEC50 [8]: 7.42 | pEC50 [1]: 7.41

Ipilimumab (antibody)
pEC50 [1]: 7.88

Rituximab (antibody)
pEC50 [7]: 7.81 | pEC50 [15]: 7.93 | pEC50 [10]: 7.84 | pEC50 [8]: 7.54 | pEC50 [14]: 7.57 | pEC50 [16]: 7.62 | pEC50 [1]: 7.81

Adalimumab (antibody)
pEC50 [17]: 7.16 | pEC50 [18]: 8.14 | pEC50 [15]: 8.10

Cetuximab IgG2 isotype (InvivoGen #hegfr-mab2) (from UniProt P01859 1-326) (antibody)
pEC50 [1]: 7.32

Ipilimumab IgG2 isotype (InvivoGen #hctla4-mab2) (from UniProt P01859 1-326) (antibody)
pEC50 [1]: 7.27

Atezolizumab (antibody)
pEC50 [9]: 7.96 | pEC50 [1]: 7.88 | pEC50 [12]: 8.14
